Results on five molecules are retold here after WO2019080889A1 (dated 2019).

Experiment [1] addresses T1, human CSF-1R protein (huCSF-1R), full length, expressed on CHO-S cells (human, UniProt P07333 20-972).
T1 construct: whole, on cells; Also used here as the target of the monocyte proliferation assays (native receptor on human monocytes); also called CSF-1R/CHO cells; CHO cells highly expressing CSF-1R
Put plainly: flow cytometry on CHO cells highly expressing CSF-1R.

Experiment [2] has as its target T2, cynomolgus monkey CSF-1R-His (cynomolgus monkey, UniProt A0A2K5WG90 20-512).
T2 construct: Bought protein; also called cynoCSF-1R-His; cynomolgus CSF-1R protein; not shown: His tag
Put plainly: ELISA on cynomolgus CSF-1R-His. On the technique in general: ELISA stands for enzyme-linked immunosorbent assay.

B1: humanized anti-CSF-1R antibody huC19 (antibody, human IgG1, kappa, V domains shown)
VH: QVQLVQSGAEVKKPGASVKVSCKASAITFTDYYMNWVKQAPGQGLEWIGDIYPNTGGTTYNQKFKGRVTLTVDTSISTAYMELSRLRSEDTAVYYCAREKITMEYYYAMDYWGQGTLVTVSS
VL: DIQLTQSPSSLSASVGDRVTITCRASESVSSHDIHLIHWYQQKPGKAPKLLIYAASSLESGVPSRFSGSGSGTDFTLTISSLQPEDFATYFCQQSIEDPPTFGGGTKVEIKR
notes: Full-length chains; also called huC19 (VH-c heavy chain and VL-a light chain)
On to B1, for which the binding result in experiment [1] is “binds”.

B2: humanized anti-CSF-1R antibody huC11 (antibody, human IgG1, kappa, V domains shown)
VH: EVQLVQSGAEVKKPGASVKVSCKASGYTFSNYYMNWVRQAPGQGLEWMGEMNPNTGDSSYNQKFKGRVTLTVDKSTSTAYMELSSLRSEDTAVYYCARRSPWWFFDVWGQGTMVTVSS
VL: DIVMTQSPDSLAVSLGERATINCKSSQSLLSSGNQKTSLTWYQQKPGQPPKLLIYWASTRESGVPDRFSGSGSGTDFTLTISSLQAEDVAVYYCQNDYTYPFTFGQGTKLEIKR
notes: Full-length chains; also called huC11 (VH-b heavy chain and VL-b light chain)
For B2, the binding result in experiment [1] was “binds”.

B3: anti-CSF-1R chimeric antibody C11C (antibody, V domains shown)
VH: EVQLQQSGPELVKPGASVKISCKASGYTFSNYYMNWVNQRHGERLEWIGEMNPNNGDSSYNQKFKGKATLTVDKSSSTAYMELRSLTSEDSAVYYCARRSPWWFFDVWGPGTTVIVSS
VL: DIVMTQSPSSLTVTAGEKVTMSCKSSQSLLNSGNQKNSLTWYQQKPGQPPKLLIYWASTRESGVPDRFTGSGSGTDFTLTISSVQTEDLAVYYCQNDYTYPFTFGTGTKLEIK
Take B3: in experiment [1], the binding result is recorded as “binds”.

B4: anti-CSF-1R chimeric antibody C19C (antibody, V domains shown)
VH: EVQLQQSGPELVKPGASVKISCTASAITFTDYYMNWVKQSPGKGLEWIGDIYPNNGGTTYNQKFKGKATLTVDKSSTTAYMELRSLTSEDSAVYYCAREKITMEYYYAMDYWGQGTSVTVSS
VL: DIVLTQSPASLAVSLGQRATISCRASESVSSHDIHLIHWYQQKPGQSPKLLIYAASSLESGVPARFSGSGSATDFTLNIHPVEEEDAATYFCQQSIEDPPTFGGGTKLEIK
For B4, the binding result in experiment [1] is “binds”.

B5: anti-CSF-1R chimeric antibody C27C (antibody, V domains shown)
VH: EVQLQQSGAELVRPGALVKLSCKASGFNIKDYYMHWVKQRPEQGLEWIGRFDPENGDTIYDWKFQDKAIITSDTSSNTAYLHLSSLTSEDTAVYYCARSGDYMFDYWGQGTLVTVSA
VL: ETTVTQSPASLSMAIGEKVTIRCITSTGVDDDFNWYQQRPGEPPKLLISEGNTLRPGVPSRFSSSGYGTDFVFTIENMLSEDVADYFCLQSDHLPFTFGSGTKLEIK
Take B5: the binding result in experiment [2] is reported as “no binding”.
